First the molecules themselves.
B1: unnamed (protein)
chain: MSNPYQRGPNPTRSALTADGPFSVATYTVSRLSVSGFGGGVIYYPTGTSLTFGGIAMSPGYTADASSLAWLGRRLASHGFVVLVINTNSRFDGPDSRASQLSAALNYLRTSSPSAVRARLDANRLAVAGHSMGGGGTLRIAEQNPSLKAAVPLTPWHTDKTFNTSVPVLIVGAEADTVAPVSQHAIPFYQNLPSTTPKVYVELCNASHIAPNSNNAAISVYTISWMKLWVDNDTRYRQFLCNVNDPALCDFRTNNRHCQLEHHHHHH
B2: unnamed (protein)
chain: MPPFRSSRWLSGGHVQTLYSPLWRASPQLQRRRERMTLQDGDFIDLDWYGPEGEATNCVLLLHGLTGSSASLYILGQQQALAARGWQSAAVNWRGCSGEPNHRARGYHSGVSEDLADVVKQLTLRYPHKLFAAIGYSLGGNVLLKYLGEKGSNTPLKAAVAVSVPFRLDHCAERINKGFSRVYQARFLRGLRRYVEHKRQAFLRQGRRGELARLAALETLKGMKTFWDFDGRVTAPLHGFESADDYYRRCSSAFFVEQIRIPTLIVHSLDDPFIYPQSVPKAEVLPSCVTLELHASGGHVGFIEGPPWRPRYYLEHRLPNWLQSQLCSQGKTHNTSALLSN
B3: unnamed (protein)
chain: MMGYITAHDGTNLYVEDVGFGEPIVFLHGWPANNNMFEYQKNALVEAGYRYIGIDFRGYGKSDAPATGYDYETMASDVHMVVYGLGLKNFTLVGFSMGGAIAVRYAADYKEDGLNKLVLAGAAAPIFTQRADYPYGMTTDEVDALIDDTRADRPKMLEGFGEIFFEKEHSKPMQNWFHHLALVASSHGTIASAQALRDEDLRDALPKIDVETLIIHGVHDKICPFAFAEQMEQGISNARIERFEESGHGTVLDEREKFNDTLLQFVQ
B4: unnamed (protein)
chain: MVPTTVDFDTLCPEPIFQDRWVATPRGRVFTRTWETSHLRSDVPIVLLHDSLGCVDLWRSFPAALCAATQRRVIAYDRLGFGRSDACLTPPLLSFIDDEPSTSFAALQSAFQLTHFIALGHSVGGCMAVHCAGQYVEQCQGLITIAAQAVNEPRTQQGIEEARAAFQMPEQFAKLEKYHGNKARWVLNGWIDTWLHPAFEHWSLTPALQHVHCPTLVLHGENDEYGSHRQPEGIARHTRGPAHTEILPGVGHVPHREVEAVVVHYVSEFIERLTP
B5: unnamed (protein)
chain: MRKETAWFVGGAAIAAATAAGASVWSQYGSLVRWQEPELPIQPTTRRRHTYTYKIVHDRPLQFDLYLPPGEGPFPVAVYAHGGAFVRGNRSMVTLFHPLLDHFLGKGIAVVSIDYRLFEDGVYFPDNIFDVSDALCYLKQHESLLTLDTSQLLVWGDSAGAALMLATALDRYRQFAGDLGDDLPTIKGVIALYPPTNFLLFKFIQTWLAHLKFYEGSREEWRELMVKCSPVSHLYADAPPILLLHGKKDPIVPFGQALHFVEHASDVGANVQLISFPNGTHSLASFLQSDNPIKEEQLMARINRFIEECLG
B6: unnamed (protein)
chain: MFRFHIVSALLTLFIAVPSQAHDVGQREIKISGAEPGRNLEVSVWYPAAIDGKATLIGDNIIFKGAPAVIDATPEKGSFPLLVMSHGSGGRAQGMAWLATELVKAGIIVAAPNHPGTTSGDSTPQDTPKIWQRTGDLSAVIDTMTTDPAWSGIIDKNKISVLGFSLGGAAAMEIAGARANLEAYARYCDTYGKWDCAWYAGGIGYRDDKQIKVDKVDLRSVDKSRFEQSNLDRRIASAIMIDPGLAQAYDAQSLASISIPMSFINLGEVETIPTGVVADKLASITPQGTYVTVAGATHWSFLPECKKGAADRLKSAGEVDPICSDDARRPRADIHADITKLVLKALQSMPKT
B7: unnamed (protein)
chain: MFRFHIVSALLTLFIAVPSQAHDVGQREIKISGAEPGRNLEVSVWYPAAIDGKATLIGDNIIFKGAPAVIDATPEKGSFPLLVMSHGSGGRAQGMAWLATELVKAGIIVAAPNHPGTTSGDSTPQDTPKIWQRTGDLSAVIDTMTTDPAWSGIIDKNKISVLGHSLGGAAAMEIAGARANLEAYARYCDTYGKWDCAWYAGGIGYRDDKQIKVDKVDLRSVDKSRFEQSNLDRRIASAIMIDPGLAQAYDAQSLASISIPMSFINLGEVETIPTGVVADKLASITPQGTYVTVAGATHFSFLPECKKGAADRLKSAGEVDPICSDDARRPRADIHADITKLVLKALQSMPKT
B8: unnamed (protein)
chain: MFRFHIVSALLTLFIAVPSQAHDVGQREIKISGAEPGRNLEVSVWYPAAIDGKATLIGDNIIFKGAPAVIDATPEKGSFPLLVMSHGSGGRAQGMAWLATELVKAGIIVAAPNHPGTTSGDSTPQDTPKIWQRTGDLSAVIDTMTTDPAWSGIIDKNKISVLGFSLGGAAAMEIAGARANLEAYARYCDTYGKWDCAWYAGGIGYRDDKQIKVDKVDLRSVDKSRFEQSNLDRRIASAIMIDPGLAQAYDAQSLASISIPMSFINLGEVETIPTGVVADKLASITPQGTYVTVAGATHFSFLPECKKGAADRLKSAGEVDPICSDDARRPRADIHADITKLVLKALQSMPKT
B9: unnamed (protein)
chain: MFRFHIVSALLTLFIAVPSQAHDVGQREIKISGAEPGRNLEVSVWYPAAIDGKATLIGDNIIFKGAPAVIDATPEKGSFPLLVMSHGSGGRAQGMAWLATELVKAGIIVAAPNHPGTTSGDSTPQDTPKIWQRTGDLSAVIDTMTTDPAWSGIIDKNKISVLGFSMGGAAAMEIAGARANLEAYARYCDTYGKWDCAWYAGGIGYRDDKQIKVDKVDLRSVDKSRFEQSNLDRRIASAIMIDPGLAQAYDAQSLASISIPMSFINLGEVETIPTGVVADKLASITPQGTYVTVDGATHFSFLPECKKGAADRLKSAGEVDPICSDDARRPRADIHADITKLVLKALQSMPKT
B10: unnamed (protein)
chain: MFRFHIVSALLTLFIAVPSQAHDVGQREIKISGAEPGRNLEVSVWYPAAIDGKATLIGDNIIFKGAPAVIDATPEKGSFPLLVMSHGSGGRAQGMAWLATELVKAGIIVAAPNHPGTTSGDSTPQDTPKIWQRTGDLSAVIDTMTTDPAWSGIIDKNKISVLGFALGGAAAMEIAGARANLEAYARYCDTYGKWDCAWYAGGIGYRDDKQIKVDKVDLRSVDKSRFEQSNLDRRIASAIMIDPGLAQAYDAQSLASISIPMSFINLGEVETIPTGVVADKLASITPQGTYVTVAGATHFSFLPECKKGAADRLKSAGEVDPICSDDARRPRADIHADITKLVLKALQSMPKT
B11: unnamed (protein)
chain: MFRFHIVSALLTLFIAVPSQAHDVGQREIKISGAEPGRNLEVSVWYPAAIDGKATLIGDNIIFKGAPAVIDATPEKGSFPLLVMSHGSGGRAQGMAWLATELVKAGIIVAAPNHPGTTSGDSTPQDTPKIWQRTGDLSAVIDTMTTDPAWSGIIDKNKISVLGFSMGGAAAMEIAGARANLEAYARYCDTYGKWDCAWYAGGIGYRDDKQIKVDKVDLRSVDKSRFEQSNLDRRIASAIMIDPGLAQAYDAQSLASISIPMSFINLGEVETIPTGVVADKLASITPQGTYVTVAGATHISFLPECKKGAADRLKSAGEVDPICSDDARRPRADIHADITKLVLKALQSMPKT
B12: unnamed (protein)
chain: MFRFHIVSALLTLFIAVPSQAHDVGQREIKISGAEPGRNLEVSVWYPAAIDGKATLIGDNIIFKGAPAVIDATPEKGSFPLLVMSHGSGGRAQGMAWLATELVKAGIIVAAPNHPGTTSGDSTPQDTPKIWQRTGDLSAVIDTMTTDPAWSGIIDKNKISVLGFSLGGAAAMEIAGARANLEAYARYCDTYGKWDCAWYAGGIGYRDDKQIKVDKVDLRSVDKSRFEQSNLDRRIASAIMIDPGLAQAYDAQSLASISIPMSFINLGEVETIPTGVVADKLASITPQGTYVTVAGATAFSFLPECKKGAADRLKSAGEVDPICSDDARRPRADIHADITKLVLKALQSMPKT
B13: unnamed (protein)
chain: MFRFHIVSALLTLFIAVPSQAHDVGQREIKISGAEPGRNLEVSVWYPAAIDGKATLIGDNIIFKGAPAVIDATPEKGSFPLLVMSHGSGGRAQGMAWLATELVKAGIIVAAPNHPGTTSGDSTPQDTPKIWQRTGDLSAVIDTMTTDPAWSGIIDKNKISVLGFSMGGAAAMEIAGARANLEAYARYCDTYGKWDCAWYAGGIGYRDDKQIKVDKVDLRSVDKSRFEQSNLDRRIASAIMIDPGLAQAYDAQSLASISIPMSFINLGEVETIPTGVVADKLASITPQGTYVTVAGATHWSFLPECKKGAADRLKSAGEVDPICSDDARRPRADIHADITKLVLKALQSMPKT

Substrate in the first data set: PET
The experiment in a line: Proxy for plastic degradation [Released monomer concentration (HPLC/LC-MS) (TPA)]. To be noted: pH 8.
With B1, the “Proxy for plastic degradation” value was 3 mM/mg. Consider B3, for which the “Proxy for plastic degradation” value was found to be 3.7 mM/mg. Still for that read-out and setting: next, B8: 0.8 mM/mg; B9: 2.6 mM/mg.

Regarding B11, the “Proxy for plastic degradation” value stood at 1.5 mM/mg.

As for B13, the “Proxy for plastic degradation” value was determined as 2.3 mM/mg.

Substrate in another data set: pNPB
The experiment in a line: Proxy for plastic degradation [p-nitrophenol (pNP) release]. To be noted: pH 7.4.
With B2, the “Proxy for plastic degradation” value is 3 U/mL. On the same count and under the same terms, next, B4: 30 U/mL; B5: 25 U/mL. For B6, the “Proxy for plastic degradation” value is 110 U/mL. On to B7, for which the “Proxy for plastic degradation” value worked out at 15 U/mL.

With B10, the “Proxy for plastic degradation” value was determined as 15 U/mL.

For the protein B12, the “Proxy for plastic degradation” value worked out at 15 U/mL.

The data set is the same for the next values; noted with them: pH 7.4; 37 °C.
Turning to B3, the “Proxy for plastic degradation” value is 245 U/mL. Take B8: the “Proxy for plastic degradation” value worked out at 255 U/mL.

The same data set, now with this note: pH 7.4; 42 °C.
Regarding B3, the “Proxy for plastic degradation” value came to 300 U/mL. With B8, the “Proxy for plastic degradation” value stood at 330 U/mL.

Source of the values: the PETadex activity labels (doi:10.1021/acsomega.4c04843).
